Among the data in the Immune Epitope Database (IEDB) are Kd values, retold here.

The target of one experiment is HLA-A*02:03. The experiment in a line: IEDB peptide-MHC binding, purified MHC/competitive/fluorescence; filed as Kd, often an IC50 or EC50 that approximates it; ≥ and ≤ were set here for values at or beyond the usual limits of such assays. Particulars: source organism: Human immunodeficiency virus 1.
For experiment [1], the target named is HLA-A*30:01. The description is as above. Particulars: source organism: Human immunodeficiency virus 1.
For experiment [2], the target named is HLA-A*02:06. The description is as above. Particulars: source organism: Human immunodeficiency virus 1.
The target of the next experiment is HLA-A*26:02. Described as above. Particulars: source organism: Human immunodeficiency virus 1.
Experiment [3] deals with HLA-B*15:17. The description is as above. Particulars: source organism: Human immunodeficiency virus 1.
Experiment [4] addresses HLA-B*57:01. The description is as above. The settings on record: source organism: Human immunodeficiency virus 1.
The target of experiment [5] is HLA-A*11:01. The experiment is described as above. Particulars: source organism: Human immunodeficiency virus 1.
The target in experiment [6] is HLA-A*01:01. The experiment is described as above. The settings on record: source organism: Human immunodeficiency virus 1.
The target in experiment [7] is HLA-B*18:01. The description is as above. Particulars: source organism: Human immunodeficiency virus 1.
The target of another experiment is HLA-A*03:01. As to the kind of experiment: IEDB peptide-MHC binding, purified MHC/direct/fluorescence; filed as Kd, often an IC50 or EC50 that approximates it; ≥ and ≤ were set here for values at or beyond the usual limits of such assays.
The next experiment addresses HLA-B*15:09. The description is as above. The settings on record: source organism: Vibrio cholerae V52.
In another experiment the target is HLA-A*31:01. The description is as above.
Another experiment concerns the target HLA-A*69:01. Described as above.
The target in experiment [8] is HLA-B*15:01. Described as above.
A further experiment has as its target HLA-B*44:02. Described as above.
For experiment [9], the target named is HLA-B*27:05. The experiment is described as above.
Another experiment deals with HLA-A*02:01. Described as above.
In another experiment the target is HLA-B*40:01. The experiment is described as above.
Another experiment deals with HLA-B*08:01. The experiment is described as above. Particulars: source organism: Vibrio cholerae V52.
The next experiment concerns the target HLA-A*24:02. The description is as above.
Experiment [10] addresses HLA-A*11:01. The description is as above.
For another experiment, the target named is HLA-B*08:02. Described as above.
Experiment [11] deals with HLA-A*01:01. The experiment is described as above.
Another experiment has as its target HLA-B*07:02. The experiment is described as above.
Experiment [12] addresses HLA-B*18:01. The description is as above.
The target of a further experiment is HLA-B*58:01. Described as above.
For the next experiment, the target named is HLA-B*38:01. The description is as above. The settings on record: source organism: Mycobacterium tuberculosis str. Haarlem.
The next experiment concerns the target HLA-B*51:01. The description is as above. The settings on record: source organism: Mycobacterium tuberculosis.
In experiment [13] the target is HLA-A*30:01. The experiment is described as above. Particulars: source organism: Mycobacterium tuberculosis str. Haarlem.
A further experiment concerns the target HLA-B*48:01. The description is as above. The settings on record: source organism: Mycobacterium tuberculosis.
In experiment [14] the target is HLA-A*02:06. Described as above. The settings on record: source organism: Mycobacterium tuberculosis str. Haarlem.
The target in a further experiment is HLA-B*46:01. The experiment is described as above. Particulars: source organism: Mycobacterium tuberculosis.
In experiment [15] the target is HLA-B*15:17. Described as above. Particulars: source organism: Mycobacterium tuberculosis.
The target in experiment [16] is HLA-B*57:01. The experiment is described as above. Particulars: source organism: Mycobacterium tuberculosis.
A further experiment has as its target HLA-B*39:01. The description is as above. Particulars: source organism: Mycobacterium tuberculosis str. Haarlem.
Experiment [17] has as its target HLA-B*15:01. As to the kind of experiment: IEDB peptide-MHC binding, purified MHC/competitive/fluorescence; filed as Kd, often an IC50 or EC50 that approximates it; ≥ and ≤ were set here for values at or beyond the usual limits of such assays. Particulars: source organism: Human immunodeficiency virus 1.
Experiment [18] addresses HLA-B*27:05. The description is as above. Particulars: source organism: Vibrio vulnificus YJ016.
Where [19] appears, read: source organism: Vibrio cholerae.
Where [20] appears, read: source organism: Vibrio parahaemolyticus.
Setting [21] is: source organism: Mycobacterium tuberculosis.

As usually defined, the Kd is the constant that tells how readily two partners part at equilibrium. Low readings indicate tighter binding, high ones weaker binding. In the case of KSLFNTIATLY, the Kd with HLA-A*02:03 was 1.9 µM; with HLA-A*30:01 [1], not below 20 µM; in the experiment with HLA-A*02:06 [2], 0.254 µM; with HLA-A*26:02 it was not below 20 µM; in the experiment with HLA-B*15:17 [3], 0.0022 µM; in the experiment with HLA-B*57:01 [4], 0.114 µM. The Kd was 0.11 µM with HLA-A*11:01 [5], 1.02 µM with HLA-A*01:01 [6] and 0.284 µM with HLA-B*18:01 [7].

As for RVHGATVFK, the Kd in the experiment with HLA-A*03:01 (setting [19]) was 0.249 µM; in the experiment with HLA-B*15:09, not below 20 µM; with HLA-A*31:01 (setting [19]), 0.0595 µM; with HLA-A*69:01 (setting [19]), not below 20 µM; in the experiment with HLA-B*15:01 [8] (setting [19]), not below 20 µM; with HLA-B*44:02 (setting [19]) it was not below 20 µM. Moreover, the Kd with HLA-B*27:05 [9] (setting [19]) is not below 20 µM; with HLA-A*02:01 (setting [19]), not below 20 µM; with HLA-B*40:01 (setting [19]), not below 20 µM; with HLA-B*08:01 it was not below 20 µM; in the experiment with HLA-A*24:02 (setting [19]), not below 20 µM; with HLA-A*11:01 [10] (setting [19]) it was 0.0472 µM. Moreover, the Kd with HLA-B*08:02 (source organism: Vibrio cholerae V52), in the experiment with HLA-A*01:01 [11] (setting [19]), with HLA-B*07:02 (setting [19]), in the experiment with HLA-B*18:01 [12] (setting [19]) and in the experiment with HLA-B*58:01 (setting [19]) was not below 20 µM each time.

In the case of ISDPAFKVF, the Kd is not below 20 µM with HLA-A*03:01 (setting [20]); not below 20 µM with HLA-A*69:01 (setting [20]); 0.63 µM with HLA-B*15:01 [8] (setting [20]); not below 20 µM with HLA-B*44:02 (setting [20]); not below 20 µM with HLA-B*27:05 [9] (setting [20]); not below 20 µM in the experiment with HLA-A*02:01 (setting [20]). Besides, the Kd with HLA-B*40:01 (setting [20]) is not below 20 µM; in the experiment with HLA-A*24:02 (setting [20]) it was not below 20 µM; with HLA-A*11:01 [10] (setting [20]) it was not below 20 µM; with HLA-A*01:01 [11] (setting [20]), not below 20 µM; in the experiment with HLA-B*07:02 (setting [20]) it was not below 20 µM; in the experiment with HLA-B*58:01 (setting [20]), 0.0175 µM.

RGRIGRTYL: the Kd in the experiment with HLA-A*03:01 (setting [21]), in the experiment with HLA-A*31:01 (setting [21]), in the experiment with HLA-B*38:01, with HLA-B*51:01, in the experiment with HLA-A*69:01 (setting [21]) and with HLA-B*15:01 [8] (setting [21]) was not below 20 µM each time. Besides, the Kd in the experiment with HLA-A*30:01 [13] was 0.023 µM; with HLA-B*48:01, 3.04 µM; in the experiment with HLA-A*02:06 [14], not below 20 µM; in the experiment with HLA-B*46:01, not below 20 µM; with HLA-A*02:01 (setting [21]), not below 20 µM; with HLA-B*40:01 (setting [21]), not below 20 µM. For the same sequence, the Kd with HLA-B*15:17 [15] was 0.0687 µM; in the experiment with HLA-B*57:01 [16], not below 20 µM; in the experiment with HLA-B*39:01, not below 20 µM; with HLA-A*11:01 [10] (setting [21]), not below 20 µM; in the experiment with HLA-B*08:02 (source organism: Mycobacterium tuberculosis str. Haarlem), not below 20 µM; in the experiment with HLA-A*01:01 [11] (setting [21]), not below 20 µM. Besides, the results for the Kd in the experiment with HLA-B*07:02 (setting [21]), with HLA-B*18:01 [12] (setting [21]) and with HLA-B*58:01 (setting [21]) were 0.003 µM, not below 20 µM and not below 20 µM, respectively.

RSLFNTIATLY: the Kd with HLA-A*02:03 is 0.728 µM; in the experiment with HLA-B*15:01 [17], 0.711 µM; with HLA-A*30:01 [1], not below 20 µM; with HLA-A*02:06 [2] it was 0.203 µM; with HLA-A*26:02 it was 2.15 µM; with HLA-B*15:17 [3], 0.003 µM. Besides, the Kd with HLA-B*57:01 [4] is 0.146 µM; with HLA-A*11:01 [5] it was 0.255 µM; in the experiment with HLA-A*01:01 [6] it was 1.25 µM; with HLA-B*18:01 [7], 0.0886 µM.

For QQYTDEAPY, the Kd with HLA-B*27:05 [18] is not below 20 µM.
